Reference: publication PMC4303003

B1: wild type AcrB (Escherichia coli multidrug transporter AcrB) [E. coli] / itself (parent)
chain: MPNFFIDRPIFAWVIAIIIMLAGGLAILKLPVAQYPTIAPPAVTISASYPGADAKTVQDTVTQVIEQNMNGIDNLMYMSSNSDSTGTVQITLTFESGTDADIAQVQVQNKLQLAMPLLPQEVQQQGVSVEKSSSSFLMVVGVINTDGTMTQEDISDYVAANMKDAISRTSGVGDVQLFGSQYAMRIWMNPNELNKFQLTPVDVITAIKAQNAQVAAGQLGGTPPVKGQQLNASIIAQTRLTSTEEFGKILLKVNQDGSRVLLRDVAKIELGGENYDIIAEFNGQPASGLGIKLATGANALDTAAAIRAELAKMEPFFPSGLKIVYPYDTTPFVKISIHEVVKTLVEAIILVFLVMYLFLQNFRATLIPTIAVPVVLLGTFAVLAAFGFSINTLTMFGMVLAIGLLVDDAIVVVENVERVMAEEGLPPKEATRKSMGQIQGALVGIAMVLSAVFVPMAFFGGSTGAIYRQFSITIVSAMALSVLVALILTPALCATMLKPIAKGDHGEGKKGFFGWFNRMFEKSTHHYTDSVGGILRSTGRYLVLYLIIVVGMAYLFVRLPSSFLPDEDQGVFMTMVQLPAGATQERTQKVLNEVTHYYLTKEKNNVESVFAVNGFGFAGRGQNTGIAFVSLKDWADRPGEENKVEAITMRATRAFSQIKDAMVFAFNLPAIVELGTATGFDFELIDQAGLGHEKLTQARNQLLAEAAKHPDMLTSVRPNGLEDTPQFKIDIDQEKAQALGVSINDINTTLGAAWGGSYVNDFIDRGRVKKVYVMSEAKYRMLPDDIGDWYVRAADGQMVPFSAFSSSRWEYGSPRLERYNGLPSMEILGQAAPGKSTGEAMELMEQLASKLPTGVGYDWTGMSYQERLSGNQAPSLYAISLIVVFLCLAALYESWSIPFSVMLVVPLGVIGALLAATFRGLTNDVYFQVGLLTTIGLSAKNAILIVEFAKDLMDKEGKGLIEATLDAVRMRLRPILMTSLAFILGVMPLVISTGAGSGAQNAVGTGVMGGMVTATVLAIFFVPVFFVVVRRRFSRKNEDIEHSHTVDHH

Variants of: B1
Test: BN-PAGE
Conditions: with itself; read off a plot
With chain 1 A209V P223G the screen value was 0.4. For chain 1 D256N P223G, the screen value was 0.41. chain 1 D788K P223G was tested, and the screen value was 0.15. chain 1 E810K P223G showed a screen value of 0.11. chain 1 G257V P223G gave a screen value of 0.15. With chain 1 M662I P223G the screen value was 0.19. Work on chain 1 P223G yielded a screen value of 0.26. Work on chain 1 P800S P223G yielded a screen value of 0.11. For chain 1 Q737L P223G, the screen value was 0.075. Work on chain 1 T199M P223G yielded a screen value of 0.7.
